The RNAGym collection of RNA variant scans (doi:10.7554/elife.80360)

B1: HDV Ribozyme (parent)
chain: GGCCGGCAUGGUCCCAGCCUCCUCGCUGGCGCCGGCUGGGCAACAUUCCGAGGGGACCGUCCCCUCGGUAAUGGCGAAUGGGACCCA

Variants of: B1
Experiment: self-cleavage, relative activity (ratio to wild type); higher = more cleavage; co-transcriptional

Variant | self-cleavage
C13A C21U | 0.0583
C13A C21A | 0.158
U12G G82C | 0.633
U12G G82U | 0.519
U12G G82A | 0.499
C13A A16C | 0.748
C13A A16G | 0.293
U12G A45C | 0.399
U12G U20G | 0
U12G U20C | 0
C13A A43C | 0.135
U12C U47A | 0.289
U12C C62G | 0.123
U12G C49U | 0.776
U12G C49G | 0.787
U12A U65A | 0.431
U12C C44G | 0
U12C C44A | 0.252
U12A G50C | 0.332
U12G C21G | 0.0665
U12G C21A | 0
U12C G81U | 0
U12C G81A | 0.095
U12G G50C | 0.727

Variant | self-cleavage
U12G G50U | 0.87
U12A U23C | 0.237
U12C G39C | 0
U12C G39A | 0.106
U12C C57U | 0.293
U12C U23C | 0.755
U12C U23G | 0.208
U12A G76U | 0.906
U12A G76A | 0.499
U12A G76C | 0.443
C13A A83C | 0.166
C13A A83G | 0.086
U12C G17C | 0.145
U12G G73C | 0.489
U12G G73U | 0.166
U12C G67U | 0.38
U12G A87C | 0.749
U12G A87G | 0.723
U12C U20G | 0.0831
U12C U20C | 0
U12G C84A | 0.665
U12G C84U | 0.692
U12A U37A | 0
U12G C62A | 1.06

Variant | self-cleavage
U12G C62U | 0.755
U12G A71C | 0.712
U12G A71G | 0.594
U12A C33U | 0.44
U12C G38C | 0.0475
U12C G38A | 0.0875
U12A G54A | 0.306
U12G C75U | 0
U12G G74C | 0.151
U12G A83C | 1.17
U12G G28A | 0
U12G G28U | 0
C13A C14A | 0.128
U12G A77G | 0.443
U12G A77U | 0.443
U12A C84U | 0.519
U12A C84G | 0.554
U12G C14A | 0.356
U12G C14G | 0
C13A | 0.21
U12A C36G | 0.0707
U12A C36A | 0.0992
C13A C26U | 0.764
U12C C86G | 0.104

Variant | self-cleavage
U12A C44G | 0.166
U12A G25U | 0.133
U12A G25C | 0.17
U12A C64G | 0.437
U12G G59A | 0.929
U12G G59C | 0.95
U12C U72G | 0.128
U12C A78U | 0
U12C A78C | 0.162
U12G C61U | 0.831
U12G C61A | 0.798
U12G C61G | 0.798
U12G C44G | 0.475
U12G C44A | 0.604
U12C G31A | 0.237
U12C G31U | 0.0386
U12C G31C | 0.123
U12G C48U | 1.2
U12G C48A | 0.831
U12A U60C | 0.391
U12A U60A | 0.453
U12G G39A | 0.403
U12G G39C | 0.208
U12A G28U | 0.181

Variant | self-cleavage
U12A G28A | 0.0314
U12A G55C | 0.201
U12C C15A | 0.482
U12C C15U | 0.147
U12C C15G | 0.147
C13A A87C | 0.222
C13A A87U | 0.157
U12C C85U | 0
U12C C85A | 0.185
U12A C63G | 0.293
U12C C75A | 0.166
U12C C75U | 0.104
U12C C75G | 0.166
U12C A43G | 0.0437
U12A C49G | 0.115
U12G C86G | 0.59
U12G C86A | 0.906
U12G C30A | 0.332
U12G C30U | 0.375
U12A C48A | 0.244
U12A C48U | 0.277
U12G G40C | 0.123
U12G G40A | 0.72
U12C A51U | 0.359

Variant | self-cleavage
U12C C84A | 0.222
U12C C84U | 0.208
U12A C66U | 0.317
U12G C22U | 0.256
U12G C22G | 0
U12G C22A | 0.277
U12A G39C | 0.0594
U12A G39U | 0.0489
U12G A51G | 0.867
U12G A51C | 0.415
U12C U60A | 0.145
U12C C24G | 0.119
U12C C24U | 0.0791
U12C C24A | 0.232
U12C G55A | 0.237
U12C G55U | 0.59
C13A C24A | 0
C13A C24G | 0.117
U12C G35A | 0.0723
U12C G35U | 0
U12C G53U | 0.427
U12C G29U | 0.0346
U12C G29A | 0.0415
U12C G29C | 0.0462

Variant | self-cleavage
U12C U27C | 0.222
U12C U27A | 0.506
U12A G35A | 0.0875
U12A G35C | 0.142
U12A G35U | 0.0225
U12G A56G | 0.767
U12G A56U | 1.22
U12A U46G | 0.104
U12G U23C | 0.997
U12G G76A | 0.917
U12G G76U | 1.17
U12G G76C | 1.2
U12G U60C | 0.895
U12G U60G | 0.831
U12C A42G | 0.0831
U12C C18G | 0
U12C C18U | 0.111
U12A G74A | 0.128
U12A G74C | 0.135
U12A G73A | 0.123
U12A G73C | 0.314
U12C G59C | 0.415
U12C G59U | 0.135
U12G A70C | 0.462

Variant | self-cleavage
U12A C86A | 0.623
U12C C21A | 0.0573
U12C C21G | 0.0791
U12C C21U | 0
U12C C19U | 0.0415
U12C C19G | 0.0723
U12A G53A | 0.403
U12A G53C | 0.475
U12G U65G | 0.962
U12G U65C | 0.831
U12G C64A | 0.594
U12G C18A | 0.151
U12G C18G | 0
U12G C18U | 0.361
U12G C36A | 0.156
U12G C36U | 0.415
U12G G52U | 0.617
U12C A70C | 0
U12A G52C | 0.453
U12G C32G | 0.0755
C13A A51G | 0.148
C13A A51C | 0.0898
U12C C66U | 0.655
U12C C66A | 0.332

Variant | self-cleavage
U12A U20C | 0
U12A U20A | 0.101
U12A U20G | 0
U12G G34U | 0.266
U12A C85U | 0.481
U12A C85G | 0.208
U12A C85A | 0.383
U12G G38A | 0.0978
U12A G38U | 0.0277
U12C C32U | 0.135
U12C C32G | 0
U12A G82C | 0.302
U12A G82U | 0.161
C13A C32G | 0.0346
U12C C64A | 0.344
U12C C64U | 0.665
U12C A83U | 0.128
U12C C58U | 0.222
U12C C58G | 0.208
U12C A77C | 0.237
U12A U79C | 0.166
U12A U79G | 0.302
U12G G25C | 0.119
U12C G52U | 0.35

Variant | self-cleavage
U12C G52A | 0.554
U12G G81C | 0.665
U12G G81U | 0.266
U12G G81A | 0.201
U12C U69G | 0.485
U12C U69C | 0.391
U12G G31C | 0.138
U12G G31U | 0.277
C13A C15U | 0.185
C13A C15A | 0
U12C C22U | 0.231
U12C C22A | 0.115
U12G U69G | 0.831
U12C C36A | 0.142
U12G G35U | 0.104
U12G G35C | 0.151
U12G G54U | 0.793
U12G G54A | 0.831
U12G U47C | 0.437
U12G U47G | 1.21
U12C G68U | 0.284
U12A G81U | 0.122
U12A G81C | 0.0723
U12A G40U | 0.111

Variant | self-cleavage
U12A G40A | 0.374
U12A G40C | 0.219
U12A G34U | 0.142
U12A C58U | 0.302
C13A C18G | 0.0773
C13A C18U | 0.0604
U12C G76U | 0.489
C13A C22G | 0.026
C13A C22A | 0.0287
U12G C19G | 0
U12G C19U | 0.0378
U12G C19A | 0.161
U12G C26A | 0.748
U12G G80U | 0.534
U12C A16G | 0
U12C G34U | 0.0396
U12C G34A | 0.0692
U12G G55C | 0.95
C13A A56U | 0.312
U12G G17A | 0.277
U12C U46C | 0.101
U12A G59U | 0.214
U12G C66U | 0.853
U12G C66G | 0.862

Variant | self-cleavage
U12C C41G | 0.289
U12G C13U | 0.931
U12G C13G | 0.639
C13A A42C | 0.0594
U12C U65C | 0.492
U12C U65G | 0.323
U12C U65A | 0.489
U12C C14U | 0.277
U12C C14G | 0.229
U12C C14A | 0.18
U12C C26A | 0.831
U12C C26U | 0.776
U12C G54U | 0.415
U12A U47C | 0.332
U12A U47G | 0.262
U12C A45U | 0.196
U12C A45G | 0.277
C13A C33U | 0.369
C13A C33A | 0.0396
U12G A43C | 0.431
C13A C36U | 0.0432
C13A C36G | 0.192
C13A C36A | 0.0421
U12G G29U | 0.0489

Variant | self-cleavage
U12G G29A | 0.0978
U12G G29C | 0.175
C13A A71U | 0.0615
C13A A70U | 0.0405
C13A A70C | 0.285
U12A U69A | 0.346
U12C G73A | 0.289
U12A U72G | 0.185
U12A C61G | 0.158
U12A C61U | 0.469
U12C C63G | 0.123
U12G C15U | 0.453
U12G C15A | 0.237
U12C G74A | 0.0519
U12C G74C | 0
U12G A78G | 0.612
U12G A78C | 0.0594
U12A G67A | 0.383
U12A G67U | 0.256
U12G G53A | 0.88
U12G G53U | 1.01
U12G C24A | 0.65
U12G C24U | 0.511
U12A U27G | 0.237

Variant | self-cleavage
U12A U27C | 0.35
U12G C57A | 0.985
U12G C57G | 0.931
U12A G80C | 0.0852
U12A G31U | 0.0811
U12A G31A | 0.125
U12G U27A | 0.831
U12G G67U | 0.731
U12C U37C | 0.35
U12C U37A | 0.147
U12C U37G | 0.332
U12A G17U | 0.108
U12C A56G | 0.623
U12A C41A | 0.437
U12C A87G | 0.369
U12C A87C | 0.479
C13A A78G | 0.0773
C13A A78C | 0.0297
U12G U72A | 0.525
U12G U79C | 0.243
U12C G50A | 0.359
U12C G50U | 0.332
